These results are taken from paper PMC9615034.

Assay [1] has as its target myeloperoxidase (Homo sapiens) (UniProt P05164). Conditions: cited from earlier work.
The target in assay [2] is Myeloperoxidase (native) (Homo sapiens) (UniProt P05164). Put plainly: SPR. The conditions noted are these: cited from earlier work.
In assay [3] the target is myeloperoxidase (Homo sapiens) (UniProt P05164). Put plainly: SPR. The conditions noted are these: cited from earlier work.
Assay [4] shares this target. Conditions: cited from earlier work. This is another data set of the same source.
The target in assay [5] is biotinylated native human leukocyte myeloperoxidase (human) (UniProt P05164). Put plainly: SPR; Biacore T200; biotinylated native MPO reversibly immobilised on a CAP chip (Biotin CAPture kit) to 500 RU; SPIN variants injected, 2-64 nM (legend: 32-2 nM), single cycle kinetics; RT; PBS, 0.05% Tween 20, 0.1% BSA; two-state model for SPIN-aureus, 1:1 model for SPIN-truncated.

In assay [6] the target is mature dimeric human leukocyte myeloperoxidase (human) (UniProt P05164). The assay is described as follows: ITC; 10 μM MPO in the cell, 150 μM SPIN variant as titrant, 19 injections of 3 μl; 50 mM phosphate buffer pH 7.4 or pH 5; one-site binding model.
For assay [7] the target is unchanged.
Assay [8] has the same target. This is another data set of the same source.

Where “and” joins values, the source holds several entries; their conditions need not be identical. Identical values can stand only once. Like-named read-outs stand apart in the source and are kept apart here.

Regarding “SPIN-truncated C-terminal domain (from UniProt A0A0H3K703)”, the Kd in assay [1] was 10 nM.

As to SPIN-aureus (from UniProt A0A0H3K703), the Kd was 15.9 nM and 9.3 nM in assay [2]; 11.8 nM in assay [3]; 10 nM in assay [4].

Turning to “SPIN-truncated CTD (from UniProt A0A0H3K703)”, the Kd in assay [2] is 29.8 nM; in assay [3], 35.1 nM.

B1: SPIN-truncated (domain or fragment)
chain: LEHELSYIDVLLDKNADQATKDNLRSYFADKGLHSIKDIINKAKQDGFDVSKYEHVK
In the case of B1, in assay [5], the Kd turned out to be 21 nM, the koff was 0.016 s⁻¹ and the kon is 110000 M⁻¹ s⁻¹. In assay [6], the Kd came to 5.9 nM and the dH is -17.4 kcal/mol.

B2: SPIN-aureus (Staphylococcal Peroxidase Inhibitor from Staphylococcus aureus) (natural protein)
chain: SQNGLVLHDDANFLEHELSYIDVLLDKNADQATKDNLRSYFADKGLHSIKDIINKAKQDGFDVSKYEHVK
Regarding B2, in assay [7], the shift of the Tm of MPO by DSC, MPO with SPIN-aureus against MPO alone, pH 5 came out at 5 °C and the shift of the Tm of MPO by DSC, MPO with SPIN-aureus against MPO alone, pH 7.4 stood at 1.5 °C. In assay [5], the Kd worked out at 0.005 nM; the koff1 (two-state model, first step) is 0.005 s⁻¹; the koff2 (two-state model, second step) amounted to 3.5e-06 s⁻¹; the kon1 (two-state model, first step) was 590000 M⁻¹ s⁻¹. In assay [8], this molecule had a half maximal inhibition time IT50 of the bromination activity of MPO, first phase (incubation 0-5 min, ∼80% total inhibition) of 2.4 s; a half maximal inhibition time IT50 of the bromination activity of MPO, second phase (incubation 5-120 min) of 24 min; an inhibition of the bromination activity of MPO (MCD assay, pH 5) after preincubation with SPIN-aureus for 0 to 120 min of 99.5%.
